In article PMC12241074:

Molecular target: mouse IgM (mouse)

Substance: recombinant mouse polymeric immunoglobulin receptor (from UniProt O70570 19-771)
- GSDMD level (Western blot) in primary mouse AT2 treated for 16 h with iKP + r pIgR (0.5 ug/mL) + IgM (0.5 ug/mL), compared with non-treated cells: 326%
- GSDMD-NT level (Western blot) in primary mouse AT2 treated for 16 h with iKP + r pIgR (0.5 ug/mL) + IgM (0.5 ug/mL), compared with non-treated cells: 13 fold
